Experimental data from patent US20230312704A1 (SHANGHAI ESCUGEN BIOTECHNOLOGY, published 2023).
Changes are numbered by the printed parent chain.

Columns and labels:
[1] = biological target: T1, human CLDN18 splice variant 2 (Claudin 18.2, hCLDN18.2) (human); assay: IHC with hybridoma supernatant on FFPE sections of HEK293-hCLDN18.2 cell blocks
T1 construct: The same entry is used for CLDN18.2 in human stomach and gastric cancer FFPE tissue (IHC); also called HEK293-hCLDN18.2; HEK293-CLDN18.2

[2] = biological target: T1, human CLDN18 splice variant 2 (Claudin …); assay: flow cytometry on HEK293-hCLDN18.2 cells, paraformaldehyde-fixed and non-fixed
[3] = biological target: T2, mouse CLDN18.1 (mCLDN18.1) (mouse, UniProt P56857 1-264); assay: flow cytometry on HEK293-mCLDN18.1 cells, paraformaldehyde-fixed and non-fixed
T2 construct: Stably expressed on HEK293 cells; the lung-type isoform is meant; also called HEK293-mCLDN18.1

[4] = biological target: T3, mouse CLDN18.2 (mCLDN18.2) (mouse, UniProt P56857 10-264); assay: flow cytometry on HEK293-mCLDN18.2 cells, paraformaldehyde-fixed and non-fixed
T3 construct: Stably expressed on HEK293 cells; the stomach-type isoform is meant; also called mouse mhCLDN18.2; m hCLDN18.2
T3 chain: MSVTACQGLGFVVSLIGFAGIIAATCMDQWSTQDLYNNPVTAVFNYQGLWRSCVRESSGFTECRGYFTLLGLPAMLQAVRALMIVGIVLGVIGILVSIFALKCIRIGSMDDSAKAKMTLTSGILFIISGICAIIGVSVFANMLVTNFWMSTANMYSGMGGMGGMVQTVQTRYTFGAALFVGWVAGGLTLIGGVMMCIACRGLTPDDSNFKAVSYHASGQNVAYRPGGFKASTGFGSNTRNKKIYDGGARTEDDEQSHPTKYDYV

[5] = biological target: T1, human CLDN18 splice variant 2 (Claudin …); assay: flow cytometry on HEK293-hCLDN18.2 cells, 3-fold dilutions from 10 µg/mL, 8 points

B1: 5-I10 (mouse hybridoma clone, supernatant) (antibody, V domains shown)
VH: EIQLQQSGAELVKPGASVKISCKAPGYSFTDYNMNWVKQSHGKSLEWIGNINSYYGSTSYNQKFKGKATLTVDRSSSTAYMQLNSLTSEDSAVYYCTNFDRGNSFPYWGHGTLVTVSA
VL: DIVMTQSPSSLTVTVGEKVTMTCKSSQSLLNSGNQKNYLTWYQQKPGQSPKLLIYWASTRESGVPERFTGRGSGTDFTLTISSVQAEDLAVYYCQNGYSYPFTFGSGTNLEIK
notes: Antibody as secreted by the hybridoma; also called subclones 5-I10-33 and 5-I10-18
- binding result [1]: binds

B2: human-mouse chimeric positive control antibody 163E12 (antibody, human IgG1, kappa, V domains shown)
VH: QIQLVQSGPELKKPGETVKISCKASGYTFTNYGMNWVKQAPGKGLKWMGWINTNTGEPTYAEEFKGRFAFSLETSASTAYLQINNLKNEDTATYFCARLGFGNAMDYWGQGTSVTVSS
VL: DIVMTQSPSSLTVTAGEKVTMSCKSSQSLLNSGNQKNYLTWYQQKPGQPPKLLIYWASTRESGVPDRFTGSGSGTDFTLTISSVQAEDLAVYYCQNDYSYPLTFGAGTKLELKR
notes: Human-mouse chimeric antibody expressed in CHOS cells and purified on Protein A. It was detected with an anti-human Fc secondary antibody; also called home-made positive control (Benchmarker) chimeric antibody 163E12
- binding result [2]: binds
- binding result [3]: no binding
- binding result [4]: binds

B3: purified recombinant mouse monoclonal antibody 5-G17 (mouse IgG2a, kappa) (antibody, V domains shown)
VH: EVKLVESGGGLVKPGGSLKLSCAASGFTISDYGMAWVRQAPGKGPEWVAFISNLAYSIHYVDTVTGRFTISRENAKNTLYLEMRSLRSEDTAMYYCARMYYGNALDYWGQGTSVTVSS
VL: B2 VL with A15T, S28N, Y100F
notes: Expressed in HEK293 cells and purified on Protein A; also called recombinant and purified mouse IgG2a type 5-G17
- binding result [5]: binds

B4: purified recombinant mouse monoclonal antibody 5-I10 (mouse IgG2a, kappa) (antibody, V domains shown)
VH: B1 VH
VL: B2 VL with A15V, S22T, P49S, D66E, S71R, D97G, L102F, A106S, K109N, L112I
notes: also called recombinant and purified mouse IgG2a type 5-I10
- binding result [5]: binds

B5: 5-G17 (mouse hybridoma clone, supernatant) (antibody, V domains shown)
VH: B3 VH
VL: DIVMTQSPSSLTVTTGEKVTMSCKSSQNLLNSGNQKNYLTWYQQKPGQPPKLLIYWASTRESGVPDRFTGSGSGTDFTLTISSVQAEDLAVYYCQNDYSFPLTFGAGTKLELK
notes: Antibody as secreted by the hybridoma; also called subclones 5-G17-30 and 5-G17-6
- binding result [1]: binds
